Experimental data from US20250296971A1, “GASTRIC INHIBITORY PEPTIDE RECEPTOR LIGANDS” (priority 2021, published 2025).
One block for each molecule: values may come before it. *1 amine or outer side, *2 acyl side, *3 side chain or, on linkers, in order; H or OH if unused. Bridges are numbered along the chain shown (N, C = ends). Primed or numbered codes have the meaning given here. [ ]: non-standard residue; d: D form. The star is where a group is joined. Ttds = 1,13-diamino-4,7,10-trioxatridecan-succinamic acid, NCCCOCCOCCOCCCNC(=O)CCC(=O)*; dE(AGLU) = D-glutamic acid bearing 1-amino-1-deoxy-D-glucitol; Pro(trans-4-NH2) = O=C([C@@H]1C[C@@H](N[*:3])CN1[*:1])[*:2]; DOTA = O=C(O)CN1CCN(CC(=O)O)CCN(CC(=O)*)CCN(CC(=O)O)CC1; MeO2kDaPEGAc″ = methoxy polydisperse 2 kDa PEG acetyl; Trp(5-Cl) = N[C@@H](Cc1c[nH]c2ccc(Cl)cc12)C(=O)O; Trp(6-Cl) = N[C@@H](Cc1c[nH]c2cc(Cl)ccc12)C(=O)O; Phe(3,5-Cl2) = N[C@@H](Cc1cc(Cl)cc(Cl)c1)C(=O)O; Pyridine(2,6-diCH2) = c1cc(C[*:1])nc(C[*:2])c1; Trp(7-aza) = N[C@@H](Cc1c[nH]c2ncccc12)C(=O)O; 2Lut″ = 2,6-lutidylidene linking two thiols; APAc = 4-amino-1-carboxymethylpiperidine; Phe(2-Cl) = N[C@@H](Cc1ccccc1Cl)C(=O)O; mXylylene = c1cc(C[*:1])cc(C[*:2])c1; Glutaryl = O=C(CCCC(=O)[*:2])[*:1]; AGLU = 1-amino-1-deoxy-D-glucitol; Hyp = O=C(O)[C@@H]1C[C@@H](O)CN1; Cysteamide = C(CS[*:3])N[*:1]; Suc = O=C(CCC(=O)[*:2])[*:1]; 2Lut(3) = 2,6-lutidylidene; hCys = N[C@@H](CCS)C(=O)O; Api = NC1(C(=O)O)CCNCC1; Thp = NC1(C(=O)O)CCOCC1; Aib = CC(C)(N)C(=O)O; mli″ = maleimide

Key:
[1] = biological target: biotinylated extracellular domain of the human GIP receptor (bioGIPR) (human) (UniProt P48546); experiment: SPR single cycle kinetics, bioGIPR captured on chip; category A: pKD >9.0
biotinylated extracellular domain of the human GIP receptor (bioGIPR) (human), sequence (P48546 24-138 limits assumed): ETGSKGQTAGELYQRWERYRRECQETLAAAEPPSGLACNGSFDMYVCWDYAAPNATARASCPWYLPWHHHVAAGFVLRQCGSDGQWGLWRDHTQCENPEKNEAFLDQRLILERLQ

[2] = biological target: human Gastric Inhibitory Peptide Receptor (human) (UniProt P48546); experiment: FACS competition with GIP-057 on CHO-K1-hGIPR cells; pIC50 category B: 7.1-8.0
human Gastric Inhibitory Peptide Receptor (human), sequence (P48546 22-466 limits assumed): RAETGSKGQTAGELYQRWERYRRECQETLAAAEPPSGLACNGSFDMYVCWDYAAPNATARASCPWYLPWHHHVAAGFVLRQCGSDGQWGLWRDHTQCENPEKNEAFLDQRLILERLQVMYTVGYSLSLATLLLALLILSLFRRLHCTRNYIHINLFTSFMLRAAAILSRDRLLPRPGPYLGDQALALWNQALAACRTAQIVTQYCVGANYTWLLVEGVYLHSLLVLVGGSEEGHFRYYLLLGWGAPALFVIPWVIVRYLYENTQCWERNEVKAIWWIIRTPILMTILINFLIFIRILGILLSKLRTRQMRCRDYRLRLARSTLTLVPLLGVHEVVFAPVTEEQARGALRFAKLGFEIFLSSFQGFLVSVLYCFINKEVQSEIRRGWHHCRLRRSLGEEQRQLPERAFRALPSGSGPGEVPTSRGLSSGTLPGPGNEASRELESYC

[3] = biological target: biotinylated extracellular domain of the human GIP receptor (bioGIPR) (human) (UniProt P48546); experiment: SPR single cycle kinetics, bioGIPR captured on chip; category A: t1/2 >15 min
[4] = biological target: human Gastric Inhibitory Peptide Receptor (GIPR) (human) (UniProt P48546); experiment: FACS competition vs biotinylated GIP-057 on CHO-K1-hGIPR cells; category B: pIC50 7.1-8.0
human Gastric Inhibitory Peptide Receptor (GIPR) (human), sequence (P48546 22-466 limits assumed): as above

Molecule: AGLU-Glutar-APAc-Asp-Trp-5Clw-Tap(AGLU-Glutar)-Glu-leu-[Cys(2Lut)-Apc(DOTA-glu(AGLU))-Leu-Ile-Cys]-APAc-glu(AGLU)-NH2 (peptide)
pKD [1]: > 9 pkd
pIC50 [2]: 7.1 to 8 pic50
t1/2 [3]: > 15 min

Molecule: Suc-W[Trp(5-Cl)][Hyp]E[dL]C[Api](MeO2kDaPEGAc″)LIC-{APAc-Lys(DOTA)-NH2} (linker 6-10 via Pyridine(2,6-diCH2)) [HO-Succinyl-Trp-5Clw-Hyp-Glu-leu-[Cys(2Lut)-Apc(MeO2kDaPEGAc)-Leu-Ile-Cys]-APAc-Lys(DOTA)-NH2]
pIC50 [2]: 7.1 to 8 pic50

Molecule: Ac-D[Phe(2-Cl)][Trp(5-Cl)][Hyp]E[dL]C[Api](DOTA)LIC-NH2 (linker 7-11 via Pyridine(2,6-diCH2)) [Ac-Asp-Ocf-5Clw-Hyp-Glu-leu-[Cys(2Lut)-Apc(DOTA)-Leu-Ile-Cys]-NH2]
pIC50 [4]: 7.1 to 8 pic50

B1: Ac-Asp-Egn-5Clw-Hyp-Glu-leu-[Cys(2Lut)-Thp-Leu-Ile-Cys]-NH2 (peptide)
peptide: Ac-D[Phe(3,5-Cl2)][Trp(5-Cl)][Hyp]E[dL]C[Thp]LIC-NH2
modifications: linker 7-11 via Pyridine(2,6-diCH2)
SMILES: CC[C@H](C)[C@@H]1NC(=O)[C@H](CC(C)C)NC(=O)C2(CCOCC2)NC(=O)[C@@H](NC(=O)[C@@H](CC(C)C)NC(=O)[C@H](CCC(=O)O)NC(=O)[C@@H]2C[C@@H](O)CN2C(=O)[C@H](Cc2c[nH]c3ccc(Cl)cc23)NC(=O)[C@H](Cc2cc(Cl)cc(Cl)c2)NC(=O)[C@H](CC(=O)O)NC(C)=O)CSCc2cccc(n2)CSC[C@@H](C(N)=O)NC1=O
pIC50 [4]: 7.1 to 8 pic50

Molecule: Ac-DW[Trp(7-aza)][Hyp]E[dL]C[Thp]LIC-NH2 (linker 7-11 via 2Lut″) [Ac-Asp-Trp-7Nw-Hyp-Glu-leu-[Cys(2Lut)-Thp-Leu-Ile-Cys]-NH2]
pIC50 [4]: 7.1 to 8 pic50

B2: AGLU-Glutar-APAc-Hse-Trp-5Clw-Hyp-Glu-leu-[Cys(2Lut)-Apc(DOTA-glu(AGLU))-Leu-Ile-Cys]-APAc-glu(AGLU)-NH2 (peptide)
peptide: XWXXEXCXLIC
modifications: not fully specified; N-term AGLU-Glutar-APAc; Hse; 5Clw; Hyp; leu (D-Leu); thioether cycle [Cys(2Lut)..Cys]; Apc(DOTA-glu(AGLU)); C-term APAc-glu(AGLU)-NH2
pIC50 [2]: 7.1 to 8 pic50

Molecule: {DOTA-Ttds}-DW[Trp(5-Cl)][Hyp]E[dL]C[Thp]LFC-NH2 (linker 7-11 via 2Lut(3)) [DOTA-Ttds-Asp-Trp-5Clw-Hyp-Glu-leu-[Cys(2Lut)-Thp-Leu-Phe-Cys]-NH2]
pIC50 [4]: 7.1 to 8 pic50

B3: Ac-Asp-Trp-5Clw-Hyp-Glu-leu-[Cys(2Lut)-Thp-Leu-Phe-Cys]-NH2 (peptide)
peptide: Ac-DW[Trp(5-Cl)][Hyp]E[dL]C[Thp]LFC-NH2
modifications: linker 7-11 via Pyridine(2,6-diCH2)
SMILES: CC(=O)N[C@@H](CC(=O)O)C(=O)N[C@@H](Cc1c[nH]c2ccccc12)C(=O)N[C@@H](Cc1c[nH]c2ccc(Cl)cc12)C(=O)N1C[C@H](O)C[C@H]1C(=O)N[C@@H](CCC(=O)O)C(=O)N[C@H](CC(C)C)C(=O)N[C@H]1CSCc2cccc(n2)CSC[C@@H](C(N)=O)NC(=O)[C@H](Cc2ccccc2)NC(=O)[C@H](CC(C)C)NC(=O)C2(CCOCC2)NC1=O
pIC50 [4]: 7.1 to 8 pic50

Molecule: Ac-DW[Phe(3,5-Cl2)][Hyp]E[dL]C[Thp]LIC-NH2 (linker 7-11 via 2Lut″) [Ac-Asp-Trp-Egn-Hyp-Glu-leu-[Cys(2Lut)-Thp-Leu-Ile-Cys]-NH2]
pIC50 [4]: 7.1 to 8 pic50

Molecule: Ac-DW[Trp(5-Cl)][Hyp]W[dL]C[Thp]LIC-NH2 (linker 7-11 via Pyridine(2,6-diCH2)) [Ac-Asp-Trp-5Clw-Hyp-Trp-leu-[Cys(2Lut)-Thp-Leu-Ile-Cys]-NH2]
pIC50 [4]: 7.1 to 8 pic50

B4: AGLU-Glutar-APAc-Hse-Trp-5Clw-Tap-Glu-leu-[Cys(2Lut)-Apc(DOTA)-Leu-Ile-Cys]-APAc-glu(AGLU)-NH2 (peptide)
peptide: XWXXEXCXLIC
modifications: N-term AGLU-Glutar-APAc; Hse; 5Clw; Tap; leu (D-Leu); thioether cycle [Cys(2Lut)..Cys]; Apc(DOTA); C-term APAc-glu(AGLU)-NH2
pIC50 [2]: 7.1 to 8 pic50

More lines, now with the values ahead:

pIC50 [2]: 7.1 to 8 pic50
Molecule: DOTA-Ttds-Nmd-Trp-Trp-Pro-Glu-Leu-[Cys(3MeBn)-Aib-Leu-Ile-AET] (peptide)

pIC50 [2]: 7.1 to 8 pic50
Molecule: {AGLU-Glutaryl}-DW[Trp(5-Cl)][Pro(trans-4-NH2)]E[dL][dC][Api](DOTA)LI[dC]-{APAc-dE(AGLU)-NH2} (linker 7-11 via Pyridine(2,6-diCH2)) [AGLU-Glutar-Asp-Trp-5Clw-Tap-Glu-leu-[cys(2Lut)-Apc(DOTA)-Leu-Ile-cys]-APAc-glu(AGLU)-NH2]

pIC50 [4]: 7.1 to 8 pic50
Molecule: Ac-DW[Trp(5-Cl)][Hyp]E[dL][hCys][Thp]LI[hCys]-NH2 (disulfide 7-11) [Ac-Asp-Trp-5Clw-Hyp-Glu-leu-[Hcy-Thp-Leu-Ile-Hcy]-NH2]

pIC50 [2]: 7.1 to 8 pic50
Molecule: {DOTA-Ttds}-D[Trp(6-Cl)]WPE[dL]C[Aib]LI[Cysteamide] (linker 7-11 via mXylylene) [DOTA-Ttds-Asp-6Clw-Trp-Pro-Glu-leu-[Cys(3MeBn)-Aib-Leu-Ile-AET]]

pIC50 [2]: 7.1 to 8 pic50
Molecule: {AGLU-Glutaryl}-DW[Trp(5-Cl)][Pro(trans-4-NH2)]E[dL][dC][Api](DOTA)LIC-{APAc-dE(AGLU)-NH2} (linker 7-11 via Pyridine(2,6-diCH2)) [AGLU-Glutar-Asp-Trp-5Clw-Tap-Glu-leu-[cys(2Lut)-Apc(DOTA)-Leu-Ile-Cys]-APAc-glu(AGLU)-NH2]

pIC50 [4]: 7.1 to 8 pic50
Molecule: Ac-DW[Trp(5-Cl)][Hyp]E[dL][hCys][Thp]LIC-NH2 (linker 7-11 via mli″) [Ac-Asp-Trp-5Clw-Hyp-Glu-leu-[Hcy(mli)-Thp-Leu-Ile-Cys]-NH2]
